Columns and labels:
[1] = target: NMC-P1 peptide (SEQ ID NO:1) (Homo sapiens, UniProt Q00987); assay: Peptide antigen binding competition ELISA; conditions: mAb pre-incubated with peptide 1 hour at room temperature; FIG. 1D
Description: Peptide-ELISA Methodology: 5 μg/ml of NMC-P1, NMC-P2 or NMC-P3 peptide antigen was dried onto a 96-well ELISA plate overnight. Plates were then blocked with 5% BSA in 1× phosphate-buffered saline (PBS) (100 ? /well) for 2 hours at room temperature. Microplate wells were then washed 5 times with 300 ? of ice cold 1× PBS. Appropriate dilutions of monoclonal antibodies NMC-103, NMC-204 or NMC-303 in 1% bovine serum albumin (BSA) in PBS solution were then incubated with their corresponding peptides (NMC-P1, NMC-P2 or NMC-P3, respectively) at room temperature. After 2 hours, wells were washed 5 times with 300 ? ? ice-cold PBS/well and 100 ? secondary antibody (HRP-labeled Goat anti-Mouse F(ab′)2 H&L cross-adsorbed secondary antibody (HRP-GaM F(ab′)2), ThermoFisher, Cat. No. A24524) diluted 1:2500 to 1:5000 in PBS-1% BSA solution were added and the incubation continued at room temperature. After 1 hour, the wells were washed again 5 times with 200 ? of ice-cold PBS and 50 μiL of the TMB Substrate Solution (1-StepTM Ultra TMB-ELISA, ThermoFisher, Cat. No. 34028) were added to each well and color was allowed to develop for 30 minutes at room temperature. The reaction was stopped by addition of 50 μ ? ? of stop solution (ThermoFisher, Cat. No. SSO4) to each well and absorbance of each well was read immediately for optical density (OD) at 450 nm. […]

[2] = system: mouse pancreatic cancer Panc-2 cells (subcutaneous tumors); assay: Panc-2 syngeneic mouse model of pancreatic cancer; format: in vivo, mouse (C57BL/6)
Description: Methodology used (Syngeneic Mouse Models of lung, colon and pancreatic cancer): To investigate the anti-tumor effects of HDM2-specific antibodies on lung, colon and pancreatic tumors in vivo, three well-known syngeneic mouse models of lung, colon and pancreatic cancer were used (Sharma et al, 1999, J. Immunol. 163 (9):5020-5028; McIntyre, 2015, Bioassays 37(8):909-920; Li, et al, 2015, Sci. Rep. 5:7856). Subcutaneous tumors were prepared by implanting either mouse Lewis Lung cancer LL/2 cells (2.5×10^5 cells/mouse), mouse colon cancer MC-38 cells (5×10^5 cells/mouse) or mouse pancreatic cancer Panc-2 cells (2×10^6 cells/mouse) in the right flanks of 8-week-old female C57BL/6 mice (n=6-7). The mice were returned to their respective cages after tumor implantation. From day 7 after tumor implantation, the tumor volumes were measured 2 times/week with a digital caliper. In the case of MC-38 and Panc-2 study, treatment started when the tumors reached an average of 70-80 mm^3. In the case of LL/2 study, tumor cell inoculation and treatment were initiated simultaneously. Mice were micro-chipped and registered following tumor implantation. […] All tumors were injected subcutaneously and all treatments were performed by intraperitoneal injection. Any mouse displaying prolonged adverse clinical signs, or with body weight loss exceeding 15% relative to body weight at day 0, was euthanized.
The efficacy of FIDM2-specific antibody treatment and standard of care chemotherapy was further compared. […] As shown in the tumor volume graph of FIG. 19, when tumors in mice reached approximately 70 mm^3, mice were divided into 4 groups (n=6) that received: A) isotype control mouse IgG1 (2 mg/kg); B) low dose Gemcitabine (25 mg/kg) and nab-Paclitaxel (5 mg/kg); C) NMC-103 (2 mg/kg); or D) a combination of low dose Gemcitabine (25 mg/kg), nab-Paclitaxel (5 mg/kg) and NMC-103 (2 mg/kg). All drugs were injected intraperitoneally 2 times a week for 3 weeks. After receiving the 6th dose on day 19, treatments were stopped for 2 weeks.
The anti-tumor efficacy of NMC-103 and of its combination with pancreatic cancer standard of care treatment Gemcitabine (G) and nab-Paclitaxel (nP) was further evaluated in vivo utilizing the Panc-2 syngeneic mouse model of pancreatic cancer discussed above.
All drugs were injected intraperitoneally 2 times a week for 4 weeks.
The mice were then randomly divided in 2 groups that received a single dose of: A) isotype control mouse IgG1 (10 mg/kg) or B) NMC-103 (10 mg/kg).

B1: NMC-103: mouse monoclonal antibody, IgG1 isotype, binds NMC-P1 (SEQ ID NO:1); VH SEQ ID NO:36, VL SEQ ID NO:37 (antibody, V domains shown)
VH: EVQLQESGGGLVQPGGSLRLSCTTSGFTFTHYYMSWVRQPPGKALEWLGFIRNKAKGYTAEYSASVKGRFTISRDNSQSILYLQMNTLRPEDSATYYCARDIGDNWGQGTLVTVSS
VL: DIVMTQAAFSNPVTLGTSASISCRSSKNLLHSNGITYLYWYLQRPGQSPQLLISRVSNLASGVPNRFSGSESGTDFTLRISRVEAEDVGVYFCAQLLELPYTFGGGTKLEIK
modifications: mAb NMC-103 Heavy Chain Variable Region; mAb NMC-103 Light Chain Variable Region
- binding of mAb to NMC-P1 peptide on the plate after pre-incubation with NMC-P1 peptide [1]: abolished the binding
- binding of mAb to NMC-P1 peptide on the plate after pre-incubation with NMC-P2 or NMC-P3 [1]: did not affect the binding
- tumor size 6 days after a single i.p. injection ([2]; 10 mg/kg single dose after 19 days of Gemcitabine 25 mg/kg + nab-Paclitaxel 5 mg/kg, from 438 mm^3, FIG. 30): 233 mm^3
- Kaplan Meier survival analysis versus chemotherapy alone or control antibody ([2]; conditions of FIG. 27, FIG. 28): significant survival benefit
- average tumor size / measurement ([2]; day 34, NMC-103 10 mg/kg, Gemcitabine 25 mg/kg, nab-Paclitaxel 5 mg/kg i.p. 2 times a week for 4 weeks, surviving mice, NMC-103 group values ascribed to scars and inflammation, FIG. 27): 230 mm^3
- average tumor volume ([2]; day 35, i.p. 2 times a week for 3 weeks (6th dose day 19), then 2 weeks off, antibody 2 mg/kg, Gemcitabine 25 mg/kg, nab-Paclitaxel 5 mg/kg, start approx 70 mm^3, n=6, FIG. 19): 1523 mm^3
- tumor growth during 4 further weeks without drug treatment (to day 62) ([2]; groups C (n=8) and D (n=7) of FIG. 27): no sign of tumor growth beyond the initial scar size
- tumor 10 days after re-challenge with Panc-2 cells ([2]; re-challenge at day 62, 2×10^6 cells/mouse s.c. left dorsal flank, previously treated mice of FIG. 27, FIG. 29): no tumor was observed

Source: patent publication US11407840B2, “Antibodies to M(H)DM2/4 and their use in diagnosing and treating cancer” (NomoCan Pharmaceuticals LLC, priority 2017, dated 2022)
